According to PMC9582194, “The effect of helix-inducing constraints and downsizing upon a transcription block survival-derived functional cJun antagonist” (Cell Reports. Physical Science, 2022):
Positions of bridges follow the written chain, without caps; N, C: chain ends.

B1: HW11 (peptide)
peptide: Ac-LVVEEDVLEEEIEQLEEKNKALKDEIEDLQKQLEKLY-NH2
modifications: lactam 20-24
SMILES: CC[C@H](C)[C@H](NC(=O)[C@H](CCC(=O)O)NC(=O)[C@@H]1CC(=O)NCCCC[C@H](NC(=O)[C@H](CC(N)=O)NC(=O)[C@H](CCCCN)NC(=O)[C@H](CCC(=O)O)NC(=O)[C@H](CCC(=O)O)NC(=O)[C@H](CC(C)C)NC(=O)[C@H](CCC(N)=O)NC(=O)[C@H](CCC(=O)O)NC(=O)[C@@H](NC(=O)[C@H](CCC(=O)O)NC(=O)[C@H](CCC(=O)O)NC(=O)[C@H](CCC(=O)O)NC(=O)[C@H](CC(C)C)NC(=O)[C@@H](NC(=O)[C@H](CC(=O)O)NC(=O)[C@H](CCC(=O)O)NC(=O)[C@H](CCC(=O)O)NC(=O)[C@@H](NC(=O)[C@@H](NC(=O)[C@H](CC(C)C)NC(C)=O)C(C)C)C(C)C)C(C)C)[C@@H](C)CC)C(=O)N[C@@H](C)C(=O)N[C@@H](CC(C)C)C(=O)N[C@@H](CCCCN)C(=O)N1)C(=O)N[C@@H](CCC(=O)O)C(=O)N[C@@H](CC(=O)O)C(=O)N[C@@H](CC(C)C)C(=O)N[C@@H](CCC(N)=O)C(=O)N[C@@H](CCCCN)C(=O)N[C@@H](CCC(N)=O)C(=O)N[C@@H](CC(C)C)C(=O)N[C@@H](CCC(=O)O)C(=O)N[C@@H](CCCCN)C(=O)N[C@@H](CC(C)C)C(=O)N[C@@H](Cc1ccc(O)cc1)C(N)=O
notes: cyclized form of the pair HW10/HW11; NΔ24 CΔ3; source: synthetic peptide (Fmoc SPPS, on-resin lactamization, RP-HPLC purified)
B2: HW2 (peptide)
peptide: Ac-LARENEELEKEAEELVVEEDVLEEEIEQLEERNYALRKEIEDLQKQLEKL-NH2
notes: truncation NΔ10 CΔ3 of HW1; source: synthetic peptide (Fmoc SPPS, RP-HPLC purified)
B3: HW15 (peptide)
peptide: Ac-EAEELVVEEDVLEEEIEQLEEKNKALKDEIEDLY-NH2
modifications: lactam 24-28
SMILES: CC[C@H](C)[C@H](NC(=O)[C@H](CCC(=O)O)NC(=O)[C@@H]1CC(=O)NCCCC[C@H](NC(=O)[C@H](CC(N)=O)NC(=O)[C@H](CCCCN)NC(=O)[C@H](CCC(=O)O)NC(=O)[C@H](CCC(=O)O)NC(=O)[C@H](CC(C)C)NC(=O)[C@H](CCC(N)=O)NC(=O)[C@H](CCC(=O)O)NC(=O)[C@@H](NC(=O)[C@H](CCC(=O)O)NC(=O)[C@H](CCC(=O)O)NC(=O)[C@H](CCC(=O)O)NC(=O)[C@H](CC(C)C)NC(=O)[C@@H](NC(=O)[C@H](CC(=O)O)NC(=O)[C@H](CCC(=O)O)NC(=O)[C@H](CCC(=O)O)NC(=O)[C@@H](NC(=O)[C@@H](NC(=O)[C@H](CC(C)C)NC(=O)[C@H](CCC(=O)O)NC(=O)[C@H](CCC(=O)O)NC(=O)[C@H](C)NC(=O)[C@H](CCC(=O)O)NC(C)=O)C(C)C)C(C)C)C(C)C)[C@@H](C)CC)C(=O)N[C@@H](C)C(=O)N[C@@H](CC(C)C)C(=O)N[C@@H](CCCCN)C(=O)N1)C(=O)N[C@@H](CCC(=O)O)C(=O)N[C@@H](CC(=O)O)C(=O)N[C@@H](CC(C)C)C(=O)N[C@@H](Cc1ccc(O)cc1)C(N)=O
notes: cyclized form of the pair HW14/HW15; NΔ20 CΔ10; source: synthetic peptide (Fmoc SPPS, on-resin lactamization, RP-HPLC purified)
B4: HW19 (peptide)
peptide: Ac-KEAEDLVVEEDVLEEEIEQLEERNYALRKEIKDLQDQ-NH2
modifications: lactam 1-5
notes: cyclized form of the pair HW18/HW19; NΔ19 CΔ7; source: synthetic peptide (Fmoc SPPS, on-resin lactamization, RP-HPLC purified)
B5: HW16 (peptide)
peptide: Ac-EAEELVVEEDVLEEEIEQLEERNYALRKEIEDLQ-NH2
notes: linear form of the pair HW16/HW17; NΔ20 CΔ9; source: synthetic peptide (Fmoc SPPS, RP-HPLC purified)
B6: HW20 (peptide)
peptide: Ac-EAKELVDEEDVLEEEIEQLEERNYALRKEIEDLQKQ-NH2
notes: linear form of the pair HW20/HW21; NΔ20 CΔ7; source: synthetic peptide (Fmoc SPPS, RP-HPLC purified)
B7: HW28 (peptide)
peptide: Ac-EAEELVVEEDVLEEEIEQLEERNYALRKEIKDLQDQ-NH2
notes: linear form of the pair HW28/HW29; NΔ20 CΔ7; source: synthetic peptide (Fmoc SPPS, RP-HPLC purified)
B8: HW24 (peptide)
peptide: Ac-EAEELVVEEDVLEEEIKQLEDRNYALRKEIEDLQKQ-NH2
notes: linear form of the pair HW24/HW25; NΔ20 CΔ7; source: synthetic peptide (Fmoc SPPS, RP-HPLC purified)
B9: HW25 (peptide)
peptide: Ac-EAEELVVEEDVLEEEIKQLEDRNYALRKEIEDLQKQ-NH2
modifications: lactam 17-21
SMILES: CC[C@H](C)[C@H](NC(=O)[C@H](CCC(=O)O)NC(=O)[C@H](CCCCN)NC(=O)[C@H](CCCNC(=N)N)NC(=O)[C@H](CC(C)C)NC(=O)[C@H](C)NC(=O)[C@H](Cc1ccc(O)cc1)NC(=O)[C@H](CC(N)=O)NC(=O)[C@H](CCCNC(=N)N)NC(=O)[C@@H]1CC(=O)NCCCC[C@H](NC(=O)[C@@H](NC(=O)[C@H](CCC(=O)O)NC(=O)[C@H](CCC(=O)O)NC(=O)[C@H](CCC(=O)O)NC(=O)[C@H](CC(C)C)NC(=O)[C@@H](NC(=O)[C@H](CC(=O)O)NC(=O)[C@H](CCC(=O)O)NC(=O)[C@H](CCC(=O)O)NC(=O)[C@@H](NC(=O)[C@@H](NC(=O)[C@H](CC(C)C)NC(=O)[C@H](CCC(=O)O)NC(=O)[C@H](CCC(=O)O)NC(=O)[C@H](C)NC(=O)[C@H](CCC(=O)O)NC(C)=O)C(C)C)C(C)C)C(C)C)[C@@H](C)CC)C(=O)N[C@@H](CCC(N)=O)C(=O)N[C@@H](CC(C)C)C(=O)N[C@@H](CCC(=O)O)C(=O)N1)C(=O)N[C@@H](CCC(=O)O)C(=O)N[C@@H](CC(=O)O)C(=O)N[C@@H](CC(C)C)C(=O)N[C@@H](CCC(N)=O)C(=O)N[C@@H](CCCCN)C(=O)N[C@@H](CCC(N)=O)C(N)=O
notes: cyclized form of the pair HW24/HW25; NΔ20 CΔ7; source: synthetic peptide (Fmoc SPPS, on-resin lactamization, RP-HPLC purified)
B10: HW22 (peptide)
peptide: Ac-EAEELVVEEKVLEDEIEQLEERNYALRKEIEDLQKQ-NH2
notes: linear form of the pair HW22/HW23; NΔ20 CΔ7; source: synthetic peptide (Fmoc SPPS, RP-HPLC purified)
B11: HW21 (peptide)
peptide: Ac-EAKELVDEEDVLEEEIEQLEERNYALRKEIEDLQKQ-NH2
modifications: lactam 3-7
SMILES: CC[C@H](C)[C@H](NC(=O)[C@H](CCC(=O)O)NC(=O)[C@H](CCCCN)NC(=O)[C@H](CCCNC(=N)N)NC(=O)[C@H](CC(C)C)NC(=O)[C@H](C)NC(=O)[C@H](Cc1ccc(O)cc1)NC(=O)[C@H](CC(N)=O)NC(=O)[C@H](CCCNC(=N)N)NC(=O)[C@H](CCC(=O)O)NC(=O)[C@H](CCC(=O)O)NC(=O)[C@H](CC(C)C)NC(=O)[C@H](CCC(N)=O)NC(=O)[C@H](CCC(=O)O)NC(=O)[C@@H](NC(=O)[C@H](CCC(=O)O)NC(=O)[C@H](CCC(=O)O)NC(=O)[C@H](CCC(=O)O)NC(=O)[C@H](CC(C)C)NC(=O)[C@@H](NC(=O)[C@H](CC(=O)O)NC(=O)[C@H](CCC(=O)O)NC(=O)[C@H](CCC(=O)O)NC(=O)[C@@H]1CC(=O)NCCCC[C@H](NC(=O)[C@H](C)NC(=O)[C@H](CCC(=O)O)NC(C)=O)C(=O)N[C@@H](CCC(=O)O)C(=O)N[C@@H](CC(C)C)C(=O)N[C@@H](C(C)C)C(=O)N1)C(C)C)[C@@H](C)CC)C(=O)N[C@@H](CCC(=O)O)C(=O)N[C@@H](CC(=O)O)C(=O)N[C@@H](CC(C)C)C(=O)N[C@@H](CCC(N)=O)C(=O)N[C@@H](CCCCN)C(=O)N[C@@H](CCC(N)=O)C(N)=O
notes: cyclized form of the pair HW20/HW21; NΔ20 CΔ7; source: synthetic peptide (Fmoc SPPS, on-resin lactamization, RP-HPLC purified)
B12: HW26 (peptide)
peptide: Ac-EAEELVVEEDVLEEEIEQLEEKNKALKDEIEDLQKQY-NH2
notes: linear form of the pair HW26/HW27; NΔ20 CΔ7; source: synthetic peptide (Fmoc SPPS, RP-HPLC purified)
B13: HW10 (peptide)
peptide: Ac-LVVEEDVLEEEIEQLEEKNKALKDEIEDLQKQLEKLY-NH2
notes: linear form of the pair HW10/HW11; NΔ24 CΔ3 with point mutations for the bridging K and D; source: synthetic peptide (Fmoc SPPS, split batch, RP-HPLC purified)
B14: HW17 (peptide)
peptide: Ac-EAEELVVEEDVLEEEIEQLEERNYALRKEIEDLQ-NH2
modifications: lactam 28-32
notes: cyclized form of the pair HW16/HW17; NΔ20 CΔ9; source: synthetic peptide (Fmoc SPPS, on-resin lactamization, RP-HPLC purified)
B15: HW18 (peptide)
peptide: Ac-KEAEDLVVEEDVLEEEIEQLEERNYALRKEIKDLQDQ-NH2
notes: linear form of the pair HW18/HW19; NΔ19 CΔ7; source: synthetic peptide (Fmoc SPPS, RP-HPLC purified)
B16: HW12 (peptide)
peptide: Ac-LVVEEDVLEEEIEQLEERNYALRKEIEDLQKQLEDL-NH2
notes: linear form of the pair HW12/HW13; NΔ24 CΔ3; source: synthetic peptide (Fmoc SPPS, split batch, RP-HPLC purified)
B17: HW13 (peptide)
peptide: Ac-LVVEEDVLEEEIEQLEERNYALRKEIEDLQKQLEDL-NH2
modifications: lactam 31-35
notes: cyclized form of the pair HW12/HW13; NΔ24 CΔ3; source: synthetic peptide (Fmoc SPPS, on-resin lactamization, RP-HPLC purified)

Biological target: T1, cJun (60 amino acid construct encompassing the entire bZIP domain) (UniProt P05412 252-315)
T1 sequence (P05412 252-315): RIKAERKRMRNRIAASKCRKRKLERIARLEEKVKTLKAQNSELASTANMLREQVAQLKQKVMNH
Test: CD thermal denaturation; peptide (5 μM) with cJun (5 μM); ellipticity at 222 nm, 1°C to 90°C; 20 mM potassium phosphate, 150 mM potassium fluoride, 2 mM TCEP, pH 7.4; two-state fit gives the Tm of the peptide-cJun heterodimer; duplicate experiments
Conditions: both partners purified

Binder | Tm of the peptide-cJun heterodimer [°C]
B1 | 67.2
B2 | 68.5
B3 | 52.5
B4 | 58.5
B5 | 53.8
B6 | 57.5
B7 | 55.6
B8 | 55.5
B9 | 60.9
B10 | 54.9
B11 | 59.4
B12 | 56.2
B13 | 64.3
B14 | 57.2
B15 | 56.5
B16 | 62.1
B17 | 68.3

Biological target: T1, cJun (60 amino acid construct …)
Test: cell-based or functional assay
Conditions: not given

Binder | IC50 CD: peptide added to pre-incubated cJun (20 μM) and TRE DNA (5 μM); blocks cJun/TRE DNA binding [µM]
B1 | 73.5
B2 | 16.6
B3 | 118
B4 | 92.5
B5 | 725
B6 | 100
B7 | 101
B8 | 98.9
B9 | 94.4
B10 | 114
B11 | 81.1
B12 | 121
B13 | 83.9
B14 | 140
B15 | 115
B16 | 94.6
B17 | 69
